Assay results from the supplement of paper PMC12042874.
± gives the uncertainty stated by the source.

assay: amyloid nucleation score (Sup35N fusion, yeast selection) (log enrichment); library NNK3; higher = more nucleation; inactive = no reads after selection
Method in brief: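 On medium lacking adenine and uracil, psi-negative yeast expressing peptides of 20 random codons fused to Sup35N were grown 7 days at 30°C after a 24-hour induction with 100 μM copper sulfate. Illumina sequencing of input and output plasmid inserts gave the reads, and sequences under 100 input reads were excluded. The nucleation score is the DiMSum log enrichment of output over input reads, centred on the mode score of non-aggregating sequences.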

| Substance | amyloid nucleation score |
| --- | --- |
| RDCCYLTFALVPSHGLLKVK | inactive |
| ARIPEMLWFWVGTRKRGFII | 1.74 ± 0.11 |
| CLSLYL | inactive |
| NLYMLNTQGMSVLISCVGRI | 0.996 ± 0.091 |
| HGNRVFYFELHSYPVLDSAM | 0.984 ± 0.17 |
| RHMPYNGLKNDKIFYILNYT | inactive |
| GTTLHYLSRREYGFTGRILF | inactive |
| NINIMPG | inactive |
| LKRSFNDFEFH | inactive |
| FFALPDLALYNFFFCNPHYL | 2.27 ± 0.064 |
| FEYLSMYELGISVE | inactive |
| NGHWL | inactive |
| GLTVVSE | inactive |
| SYNRAA | inactive |
| TCLLMSPVFMVYFLLKTMNS | inactive |
| SSLSTNARVDLSMRR | inactive |
| GVCASNQLALKCTYVPMSVR | inactive |
| CFYVSLCGV | 0.259 ± 0.49 |
| LYESNVRCNRVVTSLFVSSQ | inactive |
| YMMGKISSPGNLMTMFAVDG | inactive |
| RLLHSGRS | inactive |
| NVVWIYTIFRGVCFGYRRWA | inactive |
| CATIILSCILSL | 1.14 ± 0.13 |

| Substance | amyloid nucleation score |
| --- | --- |
| GMVNVARRKMSGLR | 1.09 ± 0.16 |
| SSMCVLCWTIVSVRNEAVEG | 1.9 ± 0.098 |
| DLWAIGWGPFRVCSLLPWPL | inactive |
| SIGTKLASCLYLKR | inactive |
| TYLIWLGHRAHPMSLLHSFA | inactive |
| HSMNHFIWLVFKMVSYVACV | inactive |
| YNMSDTVRYHMSQVADCYIV | inactive |
| ETESATQPVTVIGVSELIRL | inactive |
| VMFLEDSVFV | inactive |
| RYVAVCSK | inactive |
| IWYGLDIWRPLCIGAPMVKD | inactive |
| LPGFSTCFARCDWWEVQPQG | inactive |
| ITWSFTVDMDALCCGPWNVR | 3.18 ± 0.078 |
| AVRMICDSCAYSLPTWVDLA | -0.592 ± 1.4 |
| GRSMLMLRTYNM | -0.056 ± 0.78 |
| SYYLITDS | inactive |
| MIVHWMVHSRLVHKAVVGDG | inactive |
| YYIPFASFVSQTCY | inactive |
| IWASRS | inactive |
| VLQHRLVFDFYKFCMSTMVH | inactive |
| KKLHALESCA | inactive |
| HSLVVPIPSPILRVLKE | inactive |
| NFQTNGTLKHNN | inactive |

| Substance | amyloid nucleation score |
| --- | --- |
| SVFFPVEFTFRVGETLCCFF | 3.01 ± 0.062 |
| NIWNWNNRVLFCEAGMGTCI | inactive |
| SGLDSWY | inactive |
| CRTQMPSIFDL | inactive |
| NSIILFWRLSRGVYSFLPHK | inactive |
| HMSQLTLYCCAKIRKVVPLL | inactive |
| GRYAEETRYRVFLLIVMTRR | inactive |
| AVITSRVRWSLRNRRANISM | inactive |
| AFDYLVV | inactive |
| FMVILMRAISMSKIKSILYH | inactive |
| YLFHLLSDRRCEDMCVVGIK | inactive |
| GFSHANGHGTEKDFSSLIPV | inactive |
| YSLGITGPHEAHQIVNLPWW | inactive |
| TFLNSNFFPIWLVVCASA | inactive |
| FIIAWWCNVSVDKTSERHYV | 1.55 ± 0.079 |
| LNYVLS | inactive |
| YINRKLRDACRRYVFGW | 0.05 ± 0.89 |
| RIRGTCMGL | inactive |
| HSDVWSVRSGAYLLLYIQTM | inactive |
| SFRSGLLSGRKWGHPVSSQE | inactive |
| SFGMCTMYFYLNVCMAKGAR | inactive |
| GLSCDYCTNLVMCCDPQL | 0.06 ± 0.25 |
| LYHFANIFSFC | inactive |

| Substance | amyloid nucleation score |
| --- | --- |
| TWWCLN | inactive |
| VSVVNYKVVHSSAEKVFSFS | inactive |
| LPPFAWPRMIPWWGRAKVIS | inactive |
| CDIRAAGSKLTDYPLSTRAS | inactive |
| NGEKLFSEDVVSYWVDVYSR | inactive |
| VLWPADFGCPARVQESGSSQ | -0.387 ± 1.5 |
| RGYEQERLWSSVWHFYNHWL | 0.405 ± 0.23 |
| VAVLVNALSLPEVGKGVVRR | 1.84 ± 0.083 |
| LRKPYLEY | inactive |
| SWIVLYRMDS | inactive |
| CSGIIRNMLWGV | inactive |
| VFYIVMMLVRAPIFFNGVPT | inactive |
| SCFAVCHYESRLVYVTYSFL | inactive |
| NCKALGFNWALMGKSMSLRG | inactive |
| KMSAPWEGQCECCGCDF | inactive |
| LTGVLLMMVLYSRPHLTKAR | inactive |
| PRQTVISASQPDLNIRGFLC | inactive |
| EGSSSLYCSELRFV | inactive |
| TDRVCTPSVSDILVRWNNSQ | inactive |
| NMLYTKRNTVSSALVIYCVN | inactive |
| HDIDGCIVRKSLYNGRGPLL | inactive |
| RNGTHCTIDEIYGW | 0.038 ± 0.58 |
| SMNKFKF | inactive |

| Substance | amyloid nucleation score |
| --- | --- |
| SESLMYRAKRVSTHYNFMCL | inactive |
| CADGSSFRETPSNFTHPNIL | inactive |
| SKDNWSRSTYTGACLR | inactive |
| LERYWCTNRGFNRWMQAYKD | inactive |
| CYDDRHENHHYGE | inactive |
| LSVTRNACTEPFRGFLIGLY | inactive |
| TAYSLMSIVFGWQPPKCGYE | 0.648 ± 0.2 |
| SLNILWRSVCFTGCERGYLG | 0.763 ± 0.2 |
| RVYLRGRIDFKGTTFGGFEK | 1.63 ± 0.059 |
| TKRWHR | inactive |
| GSWDVKLSF | inactive |
| CVVGDPSGVK | 0.62 ± 0.13 |
| TRNLPTN | inactive |
| VRNNVCRPVCYGWNGGYITV | inactive |
| SCLTIGWLNVVSFWI | 1.97 ± 0.082 |
| NTPFFGTGLSQTIAVKHLQM | inactive |
| LADNIRFISN | inactive |
| STTFDLARWASVKSVHFCYF | inactive |
| LTHGAVTVFYRFIMLSFILR | inactive |
| VITMGMSLSSVSGLRDYLQE | 1.36 ± 0.12 |
| TKWFCVFTLSRNINRFTRL | inactive |
| YVEHAYIRWRSVCKSIFLFS | inactive |
| CLFGLGVEAKVFIYQGDDQS | inactive |

| Substance | amyloid nucleation score |
| --- | --- |
| ACIYYHTASCKRCQQAIESE | inactive |
| IGSSRIDFSSRNYGV | 0.576 ± 0.12 |
| ALCSKGMGANSAKTK | inactive |
| LTRVTMGYIAEIQWNFMSKN | 1.56 ± 0.066 |
| FTFGCSLCTMYTANSHFRGC | 1.87 ± 0.061 |
| VWFLLSILPHLTKSVSWGNT | inactive |
| VFMGQDLWMSLGAEDEDLAW | inactive |
| SVVLIMKICTVEGYDPQLLF | inactive |
| VQGRYLRRVCMRMVPLRRTD | inactive |
| LVAWCDIPNCCANVYCNSVD | 1.85 ± 0.077 |
| SIFLMSFRA | 1.41 ± 0.1 |
| EWVANPSFGYAEWLLV | inactive |
| QNVRLTMLLFRNKVYS | inactive |
| HWCYRSFMTPAPPNLLPQPQ | inactive |
| TTLVSNWQCSMGCCEVLWR | 3.32 ± 0.075 |
| CRFKGCWYSRTLRRRRSVIV | inactive |
| SNSLV | inactive |
| KCDDIGCLGQAT | inactive |
| VYIRTGN | inactive |
| KKYVETVSS | inactive |
| MGKTMILKLLY | inactive |
| MACRSNGLVGPEHTYVPT | inactive |
| SWDYSKRNCSVEKVWTELNF | inactive |

| Substance | amyloid nucleation score |
| --- | --- |
| KMQISTKVCDMDLFCPKTIP | inactive |
| GGLSS | -0.809 ± 0.71 |
| RVFRLCIRFSHA | 0.391 ± 0.23 |
| KKRGHEWFVIIKSARGASKR | inactive |
| TVPIILVSTVRANMFFETRN | 1.54 ± 0.093 |
| TFCLFRS | -0.343 ± 0.63 |
| MFVSDKEYRCVTSSVTRVCT | inactive |
| STHKFNRNFIMSFAWLFICW | inactive |
| TPHESLRTCFLTKR | inactive |
| DRNEQCDSL | inactive |
| LRFVSKLWWFISMSSRSHLH | inactive |
| PYWIGNIFVEPSSD | inactive |
| RGYRAK | 1.34 ± 0.097 |
| GLCRLIDLKM | inactive |
| AVSLGVTRSKIRLASKVRVD | inactive |
| SVLMA | inactive |
| ETKSCWQL | inactive |
| DCTSILELVGGARPTHSGLE | inactive |
| SCGLFRLNMDIRVSNKNFWG | 0.991 ± 0.12 |
| FGYHYWVSATCMSLALSWLT | inactive |
| CVWILSQLG | -0.797 ± 1.9 |
| NVSFILLYGQCSECTQDA | 2.03 ± 0.067 |
| VCSVVARWFVESFCCISWMC | inactive |
